Data reported in the domain aggregation screens of Martell et al. (2025).

Assay: soluble fraction after stress (log2 fold change); higher = more stays soluble; pooled small domains, quantitative proteomics
Conditions: stress: 75 degC
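Further: 20 min heating vs room temperature control held 20 min.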

For “HMAGTPAIVKWFNPTKGFGFVTPKEAGSDALLHASVLAKRGKRWLQEGTLVEVLIEEGPKGLVVSELLTIE”, the “soluble fraction (log2)” value was -0.84.

For “HMAGTRRFELVEGSSSKFWEVTVADGSYTVTYGRIGTAGGSKTTESATAEADAEKLVREKLKKGYQEAGAA”, the “soluble fraction (log2)” value was 0.102.

With “HMAGTRVWSENGQLYVTAAVSGRANVYNVLGKLNRSLTFSAGETKSVSVPAGIYVVSLNNGKAYKVAV” the “soluble fraction (log2)” value was -3.28.

With “HMAGWIPVEERLPDDLTNPITRDAYVYPVTVDLGDVTDIRYYSFWRGHWYNQGPETMDDLVIAWMLLPEPY” the “soluble fraction (log2)” value was -0.279.

In the case of “HMAHESYVKEQLLLSLTNHEDPIMQISLIEQLTKMHERNIIHELEKLTVDVQTNEEVKVQAYASLLILS”, the “soluble fraction (log2)” value is reported as -0.869.

In the case of “HMAHKYYSIMRPVSIGTFPDNGTILGIVNFDTRQMVESIGKMAWGYINYGKPLTEKQISDYELVAE”, the “soluble fraction (log2)” value is reported as -1.4.

With “HMAHLNYQTVDINALIRHSLQLVSQDAQSRGIALQFTPRPELTTISADPDRLNQVLLNLYLNAMQD” the “soluble fraction (log2)” value was -0.607.

In the case of “HMAHLSPNDAARLVGVSRPLLNQILDEGRITFFETAGGHRKIKLAAVLAYIKERDEVAAQLAAART”, the “soluble fraction (log2)” value is reported as -0.724.

For “HMAHSDEAWSVARRVARELDKILDGAGPRRTALVRAAAELRLSTRQIYNLLARYRADRTVTSLLPRR”, the “soluble fraction (log2)” value was -0.27.

In the case of “HMAHSWEAIRVKLQQIIDEEDKTKPLNDDQIKEKLAEAGIPNLARRTVAKYRKLLNIPTARFRKR”, the “soluble fraction (log2)” value is reported as -0.993.

With “HMAIDINKIYSEIKKKIPNQDNHIKEILSIIWRDFNNYQNIKSRSILINGEKSSPKKEIFNIIEDNINIPV” the “soluble fraction (log2)” value was 0.0633.

With “HMAIDPLLDKGYEQYDKGEFTEAVKSFNRAIEIDPKNAEAHFLRAMTYQGLALSKLAVADLEKAIV” the “soluble fraction (log2)” value was 0.0903.

In the case of “HMAIGDYYINASALNVRSGEGTNYRIIGALPQGQKVQVISENSGWSKINYNGQTGYIGTRYLSKTPV”, the “soluble fraction (log2)” value is reported as -0.264.

In the case of “HMAIHTSVTEHGEHDLTVRMEMEQVFAIEMAVVSHEQATMLERTFKANAEAIYQKLLGVMTQEYP”, the “soluble fraction (log2)” value is reported as -2.42.

In the case of “HMAISEEEATNLALERVPGASAQDLRIQLEFDDGVQKYEGDIIYDGKEYDFEIDANTGTFLEWSE”, the “soluble fraction (log2)” value is reported as -0.0521.

In the case of “HMAISSADRIVAELRTWISGASPGTQLPSSRTLAARYGASPVTVQKALHTLAGMGLVEARPGAGTFVRRQS”, the “soluble fraction (log2)” value is reported as -1.42.

For “HMAITVPEGATLSDAAVLLKQAGAVRSADAFLTRAKVFGGSTPIKAGEFVIPVQASNKDILAILQGGK”, the “soluble fraction (log2)” value was 0.0742.

For “HMAKIATTVYEQIRTAILNGELSNSERLVEEDLAVSMGISRTPVREALRRLAAEGLVDVSPNRGARVAE”, the “soluble fraction (log2)” value was -0.27.

With “HMAKINFTSDAIDIGMVTRNDIEMLSFYQNVLGLTKDMEIPFPGLGVVNKLSFGSGFIKILVL” the “soluble fraction (log2)” value was 0.0804.

In the case of “HMAKLGITQREQEVLQLLVTGKTYKEIAAELFISLPTVKTHVSNIYSKAKVRNRLELSNLINYI”, the “soluble fraction (log2)” value is reported as -3.37.

With “HMAKNYYEILGLKSDATLPEIKKAFKKLSKKFHPDKNRDDDGYFESMFKSINEAYQVLIDEDKRATFDSHH” the “soluble fraction (log2)” value was -0.758.

In the case of “HMAKPAALLFEHRFDGMAEMRFRENIVKNDDGSYTYDEYFLSMLDRAGLEKIVQENMEVWIAYAKQ”, the “soluble fraction (log2)” value is reported as -2.1.

For “HMAKPVKSPLPGSVIKVAVKVGQQIKRGDLLLTLESMKMENSILAEKDGVVKNIHVQAGQSVMQDDLLLDI”, the “soluble fraction (log2)” value was -0.88.

For “HMAKPVNISAEPYHYDPTRFRVTFELPRLSDQPRKRIRKVAPAGLDREQALAWAKRLEREVLHELLR”, the “soluble fraction (log2)” value was -1.08.

With “HMAKVSVNIILKDGVDQTTFVNDVTSNTEVDLKNQLISLPQMVVLSVEEDYINTLKSHSSISILELDE” the “soluble fraction (log2)” value was -0.296.

In the case of “HMALALDDLFDRYEQLQDQSLGDKTEEGQELRAMIRAYIEQEGLSVRVTRSTTNRELLELIEQEMEG”, the “soluble fraction (log2)” value is reported as -0.306.

With “HMALENTDLYAHLRLSHTASVPEIQAALSARVKHMPLQTWLLARKWLLHPRLRERYDGMWSVRFGA” the “soluble fraction (log2)” value was -2.87.

In the case of “HMALGRTGEVYLPIPAGRAGHGKISITLQGALREVDAVTAGEALPRGTSVRVVDVAGNGVLLVEK”, the “soluble fraction (log2)” value is reported as -0.206.

For “HMALHDTLSYEEYLDLGLNGKADSAEKRELVAHALHLGRPNAKTLYKRLNMLQLNRKDVAALLEQ”, the “soluble fraction (log2)” value was 0.097.

With “HMALHLPTTTINGRQYYYFKSKEKITVYGLSKRLGLTRQEIVEHNPSAVDGIKRGSTLYFPVDEFAD” the “soluble fraction (log2)” value was -2.12.
